Data published in patent US20260167959A1, “APTAZYME-BASED REGULATABLE GENE EXPRESSION SYSTEMS” (REJUVENATE BIO INC, priority 2022, published 2026).

B1: RA302 (nucleic acid)
DNA: GCGCGTCCTGGATTCGCGGAAACGCGTACATCCAGCTGACGAGAATACCAGCATCGTCTTGATGCCCTTGGAAGTCTAGTCCCAAATAGGACGAAACGCGC
modifications: expressed or natural sequence
B2: RA303 (nucleic acid)
DNA: GCGCCGGAATACCAGCATCGTCTTGATGCCCTTGGAAGTCCGGTCCTGGATTCGCGGAAACGCGTACATCCAGCTGACGAGTCCCAAATAGGACGAAACGCGC
modifications: expressed or natural sequence
B3: RA304 (nucleic acid)
DNA: GCGCGAGAATACCAGCATCGTCTTGATGCCCTTGGAAGTCTCGCGTCCTGGATTCGCGGAAACGCGTACATCCAGCTGACGAGTCCCAAATAGGACGAAACGCGC
modifications: expressed or natural sequence
B4: RA305 (nucleic acid)
DNA: GCGCGTCCTGGATTCGCGGAAACGCGTACATCAGTGATACCAGCATCGTCTTGATGCCCTTGGCAGCACTCAGCTGACGAGTCCCAAATAGGACGAAACGCGC
modifications: expressed or natural sequence
B5: RA306 (nucleic acid)
DNA: GCGCGGGAATACCAGCATCGTCTTGATGCCCTTGGAAGTCCTCCTGGATTCGCGGAAACGCGTACATCCAGCTGACGAGTCCCAAATAGGACAAAACGCGC
modifications: expressed or natural sequence
B6: RA307 (nucleic acid)
DNA: GCGCGTCCTGGATTCGCGGAAACGCGTACATCCAGCTGACGAGTGAGAATACCAGCATCGTCTTGATGCCCTTGGAAGTCTCCCCAAATAGGACGAAACGCGC
modifications: expressed or natural sequence
B7: RA308 (nucleic acid)
DNA: GCGCGTCCTGGATTCGCGGAAACGCGTACATCCAGCAGTGATACCAGCATCGTCTTGATGCCCTTGGCAGCACTTGACGAGTCCCAAATAGGACGAAACGCGC
modifications: expressed or natural sequence
B8: RA029 (nucleic acid)
DNA: GCGCGTCCTGGATTCGCGGAAACGGGAATACCAGCATCGTCTTGATGCCCTTGGAAGTCCCGTACATCCAGCTGACGAGTCCCAAATAGGACGAAACGCGC
modifications: expressed or natural sequence
B9: RA299 (nucleic acid)
DNA: GCGCGTAGTGATACCAGCATCGTCTTGATGCCCTTGGCAGCACTCCTGGATTCGCGGAAACGCGTACATCCAGCTGACGAGTCCCAAATAGGACGAAACGCGC
modifications: expressed or natural sequence
B10: RA300 (nucleic acid)
DNA: GCGCGTCCTGGCGAGAATACCAGCATCGTCTTGATGCCCTTGGAAGTCTCGATTCGCGGAAACGCGTACATCCAGCTGACGAGTCCCAAATAGGACGAAACGCGC
modifications: expressed or natural sequence
B11: RA301 (nucleic acid)
DNA: GCGAGTGATACCAGCATCGTCTTGATGCCCTTGGCAGCACTCGTCCTGGATTCGCGGAAACGCGTACATCCAGCTGACGAGTCCCAAATAGGACGAAACGCGC
modifications: expressed or natural sequence
B12: RA030 (nucleic acid)
DNA: GCGCGTCCTGGATTCGCGGAAACGCGTACATCCAGCTGACGAGTCCCAAATAGGACGAAACGAGAATACCAGCATCGTCTTGATGCCCTTGGAAGTCTCGCGC
modifications: expressed or natural sequence

test system: Renilla luciferase RNA; assay: Barcoded aptazyme variant library screen: un-cleaved Renilla luciferase RNA by barcode read counts, HEK293-T cells; format: cell-based; details: un-cleaved Renilla luciferase RNA by barcode read counts; with 1 mM theophylline (ON) over without theophylline (OFF); HEK293-T cells; triplicate
Excerpt: Based on the findings from Example 1, an aptazyme variant library was generated from the T3H48 ribozyme with one of seven variant theophylline aptamers inserted sequentially after each nucleotide of the DNA sequence encoding the T3H48 ribozyme sequence. […] The seven variant theophylline aptamers vary in their communication channels, which are the ribonucleotides of the aptamer that attach to the ribozyme sequence (see, Table 2).
The library was barcoded with unique sequences of nine nucleotides flanked by forward and reverse primer amplification sequences.
The aptazyme library was then PCR amplified and cloned into the psiCHECK™-2 dual luciferase vector in the 3′ UTR of the Renilla luciferase gene. […] The next day, the cells were isolated followed by DNA and RNA extraction using standard methods. The purified RNA was then converted to cDNA and the barcoded portion of the aptazyme library was PCR amplified. Similarly, the DNA was PCR amplified and all the samples were sequenced. All experimental conditions (with theophylline and without theophylline) were performed in triplicate. The read count for each barcode was determined with a custom build code and the data was normalized to identify the un-cleaved fractions of the Renilla luciferase RNA from cells that were cultured in the presence or absence of theophylline for each aptazyme, which was used to obtain the fold-change between ON- and OFF-states (FIG. 2).

Row | Molecule | Fold change in RNA expression between the ON state and the OFF state
1 | B1 | 1.0
2 | B2 | 1.0
3 | B3 | 1.0
4 | B4 | 1.0
5 | B5 | 1.0
6 | B6 | 1.0
7 | B7 | 1.0

same assay, conditions: un-cleaved Renilla luciferase RNA, HEK293-T cells cultured with 1 mM theophylline (ON) over without theophylline (OFF); barcode read counts, triplicate

Row | Molecule | Fold change in RNA expression between the ON state and the OFF state
8 | B8 | 2.3 fold
9 | B9 | 1.0 fold
10 | B10 | 1.0 fold
11 | B11 | 1.0 fold
12 | B12 | 2.3 fold
